{"source": "patent EP4663662A1", "about": "(Shanghai Qilu Pharmaceutical Research and Development …, dated 2025)", "binders": {"B1": {"name": "19CH-16H2L2 humanized anti-BCMA antibody (antibody, IgG1, V domains shown)", "VH": "QVQLVQSGAEVKKPGASVKVSCKASGFTFRSSYISWVRQAPGQGLEWIAWIYAGSGNTDYNQKFTGRVTMTVDTSTSTVYMELSSLRSEDTAVYYCARHYDPPHYFDYWGQGTLVTVSS", "VL": "DIQLTQSPSSLSASVGDRVTITCSASSGVSHMHWYQQKPGKAPKRWIYDTSKLTSGVPSRFSGSGSGTDFTLTISSLQPEDFATYYCQQWSRNPWTFGQGTKVEIK"}, "B2": {"name": "19CH-16H2L2-NA humanized anti-BCMA antibody variant (antibody, IgG1, V domains shown)", "VH": "B1 VH with T58A", "VL": "B1 VL"}, "B3": {"name": "19CH-16 anti-BCMA chimeric antibody derived from mouse hybridoma (antibody, IgG1, V domains shown)", "VH": "QGQMQQSGAELVKPGTSVKLSCKTSGFTFRSSYISWLQQKPGQSLEWIAWIYAGSGNTDYNQKFTGKAQLTVDTSSSTAYMQFSSLTTEDSAIYYCARHYDPPHYFDYWGQGTTLTVSS", "VL": "QIVLTQSPAIMSASPGEKVTMTCSASSGVSHMHWYQQKSGTSPKRWIYDTSKLTSGVPTRFSGTGSGTSYSLSISSMEAEDAATYYCQQWSRNPWTFGGGTKLEIK"}}, "key": {"[1]": {"target": "T1, human BCMA (human, UniProt Q02223 1-184)", "T1 construct": "On transfected CHOK1 cells; also called Human BCMA-CHOK1 cell line; Human BCMA CHOK1", "T1 sequence": "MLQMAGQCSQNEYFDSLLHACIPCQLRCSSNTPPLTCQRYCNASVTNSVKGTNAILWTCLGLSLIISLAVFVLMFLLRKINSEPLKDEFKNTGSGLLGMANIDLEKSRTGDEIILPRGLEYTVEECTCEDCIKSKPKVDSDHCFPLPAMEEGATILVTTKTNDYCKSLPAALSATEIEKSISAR", "experiment": "flow cytometry, human BCMA-CHOK1 cells"}, "[2]": {"target": "T2, cynomolgus monkey BCMA (cynomolgus monkey, UniProt Q02223 1-184 (human entry))", "T2 construct": "On transduced CHOK1 cells; also called cyno-BCMA; Cynomolgus monkey BCMA-CHOK1 cell line", "T2 sequence (Q02223 other isoform, or with tags, fused parts or gaps)": "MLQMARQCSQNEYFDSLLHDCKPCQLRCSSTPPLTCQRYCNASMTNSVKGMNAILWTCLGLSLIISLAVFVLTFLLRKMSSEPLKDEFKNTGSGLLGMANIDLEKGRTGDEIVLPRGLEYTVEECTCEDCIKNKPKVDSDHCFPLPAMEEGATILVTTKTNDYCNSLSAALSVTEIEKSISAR", "experiment": "flow cytometry, cynomolgus BCMA-CHOK1 cells"}, "[3]": {"target": "T2, cynomolgus monkey BCMA", "experiment": "flow cytometry, cynomolgus BCMA-CHOK1 cells", "remark": "listed apart in the source"}, "[4]": {"target": "T1, human BCMA", "experiment": "flow cytometry, human BCMA-CHOK1 cells", "remark": "listed apart in the source"}, "[5]": {"target": "T1, human BCMA", "experiment": "flow cytometry, human BCMA-CHOK1 cells", "remark": "listed apart in the source"}, "[6]": {"target": "T2, cynomolgus monkey BCMA", "experiment": "flow cytometry, cynomolgus BCMA-CHOK1 cells", "remark": "listed apart in the source"}}, "note": "Numbering of substitutions follows the chain as printed. Where two headings read alike, the source gives them in different places."}
{"binder": "B1", "values": [{"measurement": "EC50", "setting": "[1]", "result": 2.13, "unit": "nM"}, {"measurement": "EC50", "setting": "[2]", "result": 4.82, "unit": "nM"}]}
{"binder": "B2", "values": [{"measurement": "EC50", "setting": "[3]", "result": 5.86, "unit": "nM"}, {"measurement": "EC50", "setting": "[4]", "result": 2.15, "unit": "nM"}]}
{"binder": "B3", "values": [{"measurement": "EC50", "setting": "[5]", "result": 0.885, "unit": "nM"}, {"measurement": "EC50", "setting": "[6]", "result": 1.22, "unit": "nM"}]}
